This assay deals with F-actin (filamentous actin, purified from chicken breast) (Gallus gallus (chicken)) (UniProt P68139). Description: co-sedimentation.
“UTRN-ABD I22D (from UniProt P46939 1-261) (domain or fragment)” gave a Kd of 38 µM.

As to “UTRN-ABD H29A (from UniProt P46939 1-261) (domain or fragment)”, the Kd is 2.8 µM.

As to “UTRN-ABD N109A (from UniProt P46939 1-261) (domain or fragment)”, the Kd is 55 µM.

“UTRN-ABD V87D (from UniProt P46939 1-261) (domain or fragment)” returned a Kd above 100 µM.

“Human UTRN-ABD (utrophin actin binding domain, amino acids 1-261) (from UniProt P46939 1-261) (domain or fragment)” registered a Kd of 1.8 µM.

What is called Kd is the free concentration of one partner at which half of the binding sites on the other are occupied at equilibrium, for simple one-to-one binding. A lower Kd goes with tighter binding.

The values are drawn from article doi:10.1101/846337.
